Tests used:
[1] = test system: GSK3β sequestration in Rab5+ endosomes, PANC-1 cells; experiment: Wnt-induced GSK3β within Rab5+ endosomes, PANC-1 cells; assay type: cell-based, human; details: Rab5 Q79L, n = 10
Procedure: (§1) PANC-1, AsPC-1, HEK293T, or HeLa cells were ﬁxed with 4% formaldehyde for 10-15 min and then blocked with 3% BSA and 0.1% Triton X-100 in PBS for 20 min at room temperature. Immunostaining was performed using the indicated antibody. Nuclei were counterstained with DAPI. Images were taken with a Leica Inverted Confocal SP8 (Leica, Germany).

GSK3β in MVBs = experiment: Co-localization of GSK3β with Rab7 and CD63 (immunofluorescence); assay type: cell-based
Procedure: as §1

[2] = test system: β-catenin/TCF4 transcriptional activity; experiment: 7TGC reporter assay; assay type: cell-based, human; details: PANC-1 cells, EGF (100 ng/mL) or CQ (100 μM)
Excerpt: The PCR products of STYK1, GSK3β, and Axin1 were cloned into pcDNA3.1-3×HA, pCMV-3×Flag (Sigma, E4401), and pCMV-mCherry (constructed by our lab) respectively. […] To make STYK1, β-catenin, GSK3β, or BLK mutants or truncations, a series of forwarding primers harboring the desired mutations were used in PCRs. The nucleotide sequences of all constructs were confirmed by DNA sequencing. […] DNA and interference RNA were transfected with Lipofectamine 3000 (Invitrogen, L3000015) according to the manufacturer’s instructions. shRNA for STYK1 #1: 5ʹ- [sequence] -3ʹ. #2: 5ʹ- [sequence] -3ʹ. siRNA for STYK1 was 5ʹ- [sequence] -3ʹ. siRNA for β-catenin was 5ʹ- [sequence] -3ʹ. siRNA for HRS was 5ʹ- [sequence] -3ʹ, siRNA for VPS24 was 5ʹ- [sequence] -3ʹ.

CyclinD1/Axin2/C-myc = experiment: Wnt target gene expression (western blot, qRT-PCR); assay type: cell-based, human; details: PANC-1 cells, EGF (100 ng/mL) or CQ (100 μM)
Procedure: Whole-cell extracts were prepared with 1% sodium dodecyl sulfate lysis buffer with freshly added 1% proteinase inhibitor cocktail (Biomake, B14001) and 1 mM phenylmethylsulfonyl fluoride (PMSF, MCE, HY-B0496). Western blot was performed as described previously.[20]
Total RNA was extracted from cultured pancreatic cancer cells using Trizol reagent (Invitrogen) according to the manufacturer’s protocol. qRT-PCR was performed as previously described.^3 The mRNA expression level for each sample was normalized to the expression of GAPDH using the 2 ^-ΔΔct method^4 with three biological replicates of comparative qRT-PCR. The following primer sequences were used for qRT-PCR: GAPDH, (forward) 5′- […] -3′ and (reverse) 5′- […] -3′; CyclinD1, (forward) 5′- […] -3′ and (reverse) 5′- […] -3′; C-myc, (forward) 5′- […] -3′ and (reverse) 5′- […] -3′; Axin2, (forward) 5′- […] -3′ and (reverse) 5′- […] -3′; STYK1, (forward) 5′- […] -3′ and (reverse) 5′- […] -3′. Amplification was performed in an ABI Q3 real-time PCR system using a SYBR Green master mix (YEASEN, 11201ES08).

Molecule	amount of GSK3β within Rab5+ endosomes [1]	separation of GSK3β into MVBs (GSK3β in MVBs; Wnt activation, discussion summary)	co-localization of GSK3β with Rab7 and CD63 (GSK3β in MVBs; under Wnt3a treatment)	Wnt signaling in the 7TGC system [2]	STYK1-mediated alteration of the Wnt/β-catenin target genes C-myc, Axin2 (CyclinD1/Axin2/C-myc)
Wnt3a: Wnt3a, R&D systems (5036-WN) (protein, UniProt P56704 19-352, looked up) Protein Wnt-3a: SYPIWWSLAVGPQYSSLGSQPILCASIPGLVPKQLRFCRNYVEIMPSVAEGIKIGIQECQHQFRGRRWNCTTVHDSLAIFGPVLDKATRESAFVHAIASAGVAFAVTRSCAEGTAAICGCSSRHQGSPGKGWKWGGCSEDIEFGGMVSREFADARENRPDARSAMNRHNNEAGRQAIASHMHLKCKCHGLSGSCEVKTCWWSQPDFRAIGDFLKDKYDSASEMVVEKHRESRGWVETLRPRYTYFKVPTERDLVYYEASPNFCEPNPETGSFGTRDRTCNVSSHGIDGCDLLCCGRGHNARAERRREKCRCVFHWCCYVSCQECTRVYDVHTCK	remarkably increased the amount of GSK3β within Rab5^+ endosomes	supports the separation of GSK3β into MVBs	detectable co-localization with Rab7 and CD63	–	–
EGF: EGF (100 ng/mL) treatment (protein, UniProt P01133 23-1207, looked up, Pro-epidermal growth factor, EGF (100 ng/mL) treatment) Pro-epidermal growth factor: PQHWSCPEGTLAGNGNSTCVGPAPFLIFSHGNSIFRIDTEGTNYEQLVVDAGVSVIMDFHYNEKRIYWVDLERQLLQRVFLNGSRQERVCNIEKNVSGMAINWINEEVIWSNQQEGIITVTDMKGNNSHILLSALKYPANVAVDPVERFIFWSSEVAGSLYRADLDGVGVKALLETSEKITAVSLDVLDKRLFWIQYNREGSNSLICSCDYDGGSVHISKHPTQHNLFAMSLFGDRIFYSTWKMKTIWIANKHTGKDMVRINLHSSFVPLGELKVVHPLAQPKAEDDTWEPEQKLCKLRKGNCSSTVCGQDLQSHLCMCAEGYALSRDRKYCEDVNECAFWNHGCTLGCKNTPGSYYCTCPVGFVLLPDGKRCHQLVSCPRNVSECSHDCVLTSEGPLCFCPEGSVLERDGKTCSGCSSPDNGGCSQLCVPLSPVSWECDCFPGYDLQLDEKSCAASGPQPFLLFANSQDIRHMHFDGTDYGTLLSQQMGMVYALDHDPVENKIYFAHTALKWIERANMDGSQRERLIEEGVDVPEGLAVDWIGRRFYWTDRGKSLIGRSDLNGKRSKIITKENISQPRGIAVHPMAKRLFWTDTGINPRIESSSLQGLGRLVIASSDLIWPSGITIDFLTDKLYWCDAKQSVIEMANLDGSKRRRLTQNDVGHPFAVAVFEDYVWFSDWAMPSVMRVNKRTGKDRVRLQGSMLKPSSLVVVHPLAKPGADPCLYQNGGCEHICKKRLGTAWCSCREGFMKASDGKTCLALDGHQLLAGGEVDLKNQVTPLDILSKTRVSEDNITESQHMLVAEIMVSDQDDCAPVGCSMYARCISEGEDATCQCLKGFAGDGKLCSDIDECEMGVPVCPPASSKCINTEGGYVCRCSEGYQGDGIHCLDIDECQLGEHSCGENASCTNTEGGYTCMCAGRLSEPGLICPDSTPPPHLREDDHHYSVRNSDSECPLSHDGYCLHDGVCMYIEALDKYACNCVVGYIGERCQYRDLKWWELRHAGHGQQQKVIVVAVCVVVLVMLLLLSLWGAHYYRTQKLLSKNPKNPYEESSRDVRSRRPADTEDGMSSCPQPWFVVIKEHQDLKNGGQPVAGEDGQAADGSMQPTSWRQEPQLCGMGTEQGCWIPVSSDKGSCPQVMERSFHMPSYGTQTLEGGVEKPHSLLSANPLWQQRALDPPHQMELTQ	–	–	–	decreased Wnt signaling in the 7TGC system	down-regulated STYK1-mediated alteration of the Wnt/β-catenin target genes C-myc, Axin2

Source: article PMC12209456, “Serine/threonine/tyrosine kinase 1 drives pancreatic carcinogenesis via GSK3β sequestration-mediated Wnt/β-catenin pathway hyperactivation” (Signal Transduction and Targeted Therapy, 2025)
